This is an account of results in article PMC10465447, “Magnetically controlled graphene field-effect transistor biosensor for highly sensitive detection of cardiac troponin I”.

In the data set the target is cardiac troponin I (CTNI) (UniProt P19429 2-210). In words: pull-down with anti-CTNI antibody magnetic beads, supernatant fluorescence; 2 uM aptamer (10 uL), 10 uM CTNI (100 uL); fluorescence about 1400 to 1050 A.U.; PBS pH 7.4 washes; binding buffer not stated; room temperature 2 h (solution pull-down); 30 min bead reaction on sensor. Conditions: protein: commercial; label: 3'-6-FAM.
cardiac troponin I (CTNI), sequence (P19429 2-210): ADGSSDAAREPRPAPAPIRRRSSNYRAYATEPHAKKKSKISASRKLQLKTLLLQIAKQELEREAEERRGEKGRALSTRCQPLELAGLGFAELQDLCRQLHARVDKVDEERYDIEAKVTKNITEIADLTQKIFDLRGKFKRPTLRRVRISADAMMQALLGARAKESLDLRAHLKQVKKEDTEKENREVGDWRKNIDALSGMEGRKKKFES

On to CGTGCAGTACGCCAACCTTTCTCATGCGCTGCCCCTCTTA (ssDNA, 5'-NH2) [CTNI aptamer], for which the binding result is “binds”.
